We go through 2 molecules from patent publication US10125184B2, “Apolipoprotein E polypeptides and their use” (priority 2011, dated 2018).

Test [1] has as its system HCVcc-luc. Description: Attachment versus post-attachment inhibition assay. The format is cell-based, Hepatitis C virus. Conditions: heparin 200 μg/ml, anti-CD81 5 μg/ml, hEP 20 μg/ml, bafilomycin A1 10 nM. The protocol:
(§1) FIGS. 5A-5D. hEP inhibits HCV entry at the attachment step. (A) HCVcc-luc was first mixed with either scrambled peptide or hEP-2 (20 μg/ml) for one hour at room temperature. In Group 1, mixed virus was directly added to Huh7.5.1 cells, whereas in Group 2, virus was purified through ultracentrifuge at 28,000×g for 4 hours in order to remove peptide, and then used to infect Huh7.5.1 cells. **p<0.005. (B) The kinetics of hEP- and bafilomycin A1-mediated inhibition were determined by time-of-addition assays, as described in the examples section. Fitted lines represent sigmoidal time-dependent curves (mean of n=3; error bars, s.d.). (C) HCVcc-Luc was added to Huh7.5.1 cells at 4° C. and incubated for 1.5 hrs. Unbound virus was removed by 2 washes with cold media, fresh media was added, and the cells were shifted to 37° C. to allow synchronous infection to proceed. Heparin (200 μg/ml), anti-CD81 monoclonal antibody (5 μg/ml), hEP (20 μg/ml), or bafilomycin A1 (10 nM) were present in the media either continuously, during the 4° C. incubation only (attachment), or during the 37° C. incubation phase only (post-attachment). % Inhibition was calculated as 100-percent infection relative to control infections containing DMSO or an isotype antibody control containing 0.01% sodium azide (for anti-CD81 only) (mean of n=3; error bars, s.d.). (D) The effects of hEP (2.7 μM) or scrambled peptide on HCV binding were determined as described in the examples section. Results were calculated as relative RNA copies with numbers obtained from the scrambled peptide treated wells set to 100 (mean of n=3; error bars, s.d.). **p<0.005.
To investigate the mechanistic action of hEP, three sets of experiments were conducted. First, hEP-2 (SEQ ID NO: 9) or scrambled peptide-treated HCVcc were purified through ultracentrifugation to remove the peptide and then used to infect naïve Huh7.5.1 cells. […] Second, to determine the kinetics of inhibition, a time-of-addition experiment was conducted. HCV remained sensitive to bafilomycin A1, a fusion inhibitor that prevents endosome acidification, until 3 hours after the 37° C. temperature shift (FIG. 5B), which is consistent with previous reports (Koutsoudakis et al., J Virol 2006; 80:5308-5320). […] In order to determine whether hEP-2 (SEQ ID NO: 9) blocks infection at the initial attachment step or a downstream event in the HCV entry process, hEP-2 (SEQ ID NO: 9) was either added together with HCVcc to cells during the 4° C. attachment step only, and then removed prior to shifting the temperature to 37° C., or added only after the temperature shift. As a positive control, hEP-1 was present during the entire course of the experiment. […] Finally, the direct binding of virions to cell surface was measured using a real-time PCR based assay.

The test system of the next test is JFH1 HCVcc. The test can be described thus: HCVcc binding assay (real-time PCR of vRNA, Huh7.5.1 cells). The test is classed as cell-based, Hepatitis C virus. Conditions: 2.7 μM, 2 hours at 4° C., relative to scrambled peptide. The protocol: as §1, with “bars, s.d.). […] Heparin (200” for “bars, s.d.). (C) HCVcc-Luc was added to Huh7.5.1 cells at 4° C. and incubated for 1.5 hrs. Unbound virus was removed by 2 washes with cold media, fresh media was added, and the cells were shifted to 37° C. to allow synchronous infection to proceed. Heparin (200”, “s.d.). **p<0.005. […]” for “s.d.). **p<0.005.”
For orientation: In qPCR the cycle at which signal appears reflects the starting amount.

The subject of a further test is HCVpp. Description: HCVpp infection of Huh7.5.1 cells. The test is classed as cell-based, Hepatitis C virus (H77, JFH1, J6 envelope).
A further test relates to DENY (Thailand 16681). Description: Dengue virus infection of Huh7.5.1 cells (TCID50). The format is cell-based.
The subject of another test is LDLR. The test can be described thus: Surface LDLR level on Huh7.5.1 cells by flow cytometry. The format is cell-based. Conditions: various time periods. The protocol:
(§2) FIGS. 4A-4C. (A) Huh7.5.1 cells seeded in a 12-well plate were treated with hEP-2 (20 μg/ml) for indicated time periods. Cells were stained with a mouse IgG (istotype control) or the anti-LDLR antibody followed by flow cytometric analysis. An overlay of 7 histograms is presented and the Δ median fluorescence intensity (ΔMFI, LDLR stain minus isotype control stain) of each sample is indicated to the upper right of the figure. (B) Cells were stained with anti-CD81 antibody and analyzed similarly as in A. (C) Immunonblots of SR-BI, CLDN1, and OCLN in the presence of hEP-2 or scrambled peptide.

The subject of a further test is SR-BI. Description: Immunoblot of SR-BI. The format is cell-based. The protocol:
as §2
(A western blot detects proteins with antibodies after separation by electrophoresis.)

Another test concerns OCLN. The test can be described thus: Immunoblot of OCLN. The test is classed as cell-based. The protocol: as §2
For test [2], the system named is HCVcc-luc. Description: Time-of-addition assay. The format is cell-based, Hepatitis C virus. Conditions: 20 μg/ml (2.7 μM). The protocol: as §1, with “bars, s.d.). […] Heparin (200” for “bars, s.d.). (C) HCVcc-Luc was added to Huh7.5.1 cells at 4° C. and incubated for 1.5 hrs. Unbound virus was removed by 2 washes with cold media, fresh media was added, and the cells were shifted to 37° C. to allow synchronous infection to proceed. Heparin (200”, “s.d.). **p<0.005. […]” for “s.d.). **p<0.005.”

For “EELRVRLASHLRKLRKRLLRDADDLQKRLAVYEEQAQQIRLQAEAFQARLKSWFEPLVEDM [hEP-1]”, in the test with HCVcc-luc [1], the “Inhibition when present after the temperature shift only (post-attachment)” value was “very little inhibition” and the “Inhibition when present during the 4° C. attachment step only” value is on record as “strongly inhibited”. For the same molecule, the “Amount of viral RNA (vRNA) bound to cells” value with JFH1 HCVcc is “decreased significantly”.

B1: hEP: human apoE dual-domain peptide: helix 4 of N-terminal domain plus major lipid-binding region; expressed in bacteria (protein)
peptide: EELRVRLASHLRKLRKRLLRDADDLQKRLAVYEEQAQQIRLQAEAFQARLKSWFEPLVEDM
As for B1, in the test with HCVpp, the “Effect on infectivity of HCVpp” value is “did not affect the infectivity”. Moreover, the “Effect on infectivity of DENY” value with DENY (Thailand 16681) is “did not affect the infectivity”. Also, the “Change of surface LDLR” value in the test with LDLR was “did not cause detectable change”. Moreover, in the test on SR-BI, the “Effect on level of SR-BI” value was “did not affect”. The “Effect on level of OCLN” value in the test on OCLN was “did not affect”. In addition, in the test on HCVcc-luc [2], the “Activity when added after the temperature shift (time of addition)” value is recorded as “disappeared almost completely”. Besides, the “Effect on infectivity of HIV-1” value with HIV-1 is “did not affect the infectivity”.
